Measurements: patent US20150273048A1

Tests used:
[1] = biological target: TL-M2e5x fusion protein (Toll-like receptor ligand sequence plus five tandem heterologous M2e domain); test: ELISA on VLPs with 14C2
[2] = biological target: TL-M2e5x fusion protein (Toll-like receptor ligand sequence plus five tandem heterologous M2e domain); test: ELISA on VLPs and virus with 14C2

With “Influenza A virus M2 monoclonal antibody 14C2 (Abcam Inc., Cambridge, Mass.)” the fold reactivity relative to M2WT VLP [1] was > 60 fold and the fold reactivity relative to A/Philippines/2/82 virus [2] was 500 fold.
